Data: the supplement of paper PMC9112550, “Optimization of the antimicrobial peptide Bac7 by deep mutational scanning” (BMC Biology, 2022)

Tested on: Escherichia coli TOP10
Test: shrunken log2 fold change of peptide-encoding DNA abundance (4.5 h post-induction vs induction); higher = less antimicrobial activity (less host growth inhibition)
Details: time post-induction: 4.5 h; library: site-saturation at positions 5, 18, 19, 20
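Note: peptides expressed intracellularly from a pBAD plasmid library in pooled LB shake-flask culture, induced with 0.3% L-arabinose, DNA abundance read by NGS, three biological replicates, DESeq2 with apeglm shrinkage.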

## RRIRKRPPRLPRPRPRPKKHPRP
  shrunken log2 fold change: 0.276

## RRIRARPPRLPRPRPRPTMIPRP
  shrunken log2 fold change: 0.00226

## RRIRLRPPRLPRPRPRPFYPPRP
  shrunken log2 fold change: -0.504

## RRIRKRPPRLPRPRPRPFWCPRP
  shrunken log2 fold change: -0.0466

## RRIRKRPPRLPRPRPRPKSWPRP
  shrunken log2 fold change: 0.308

## RRIRKRPPRLPRPRPRPDYYPRP
  shrunken log2 fold change: 0.0521

## RRIRNRPPRLPRPRPRPDYNPRP
  shrunken log2 fold change: -0.782

## RRIRVRPPRLPRPRPRPNYTPRP
  shrunken log2 fold change: -0.533

## RRIRMRPPRLPRPRPRPTSVPRP
  shrunken log2 fold change: 0.172

## RRIRLRPPRLPRPRPRPLTTPRP
  shrunken log2 fold change: -0.0027

## RRIRMRPPRLPRPRPRPENEPRP
  shrunken log2 fold change: 2.96

## RRIRARPPRLPRPRPRPRDIPRP
  shrunken log2 fold change: 0.0507

## RRIRDRPPRLPRPRPRPNECPRP
  shrunken log2 fold change: 0.0169

## RRIRVRPPRLPRPRPRPTLYPRP
  shrunken log2 fold change: -0.155

## RRIRFRPPRLPRPRPRPLTSPRP
  shrunken log2 fold change: -0.0399

## RRIRIRPPRLPRPRPRPSHLPRP
  shrunken log2 fold change: -0.622

## RRIRFRPPRLPRPRPRPHMGPRP
  shrunken log2 fold change: -0.292

## RRIRMRPPRLPRPRPRPMNNPRP
  shrunken log2 fold change: -0.411

## RRIRFRPPRLPRPRPRPAVNPRP
  shrunken log2 fold change: -0.106

## RRIRPRPPRLPRPRPRPQDMPRP
  shrunken log2 fold change: -0.39

## RRIRSRPPRLPRPRPRPGCGPRP
  shrunken log2 fold change: 0.62

## RRIRVRPPRLPRPRPRPNMIPRP
  shrunken log2 fold change: -0.491

## RRIRNRPPRLPRPRPRPNPIPRP
  shrunken log2 fold change: 0.0101

## RRIRRRPPRLPRPRPRPEKKPRP
  shrunken log2 fold change: 0.0396

## RRIRMRPPRLPRPRPRPKEYPRP
  shrunken log2 fold change: 0.189

## RRIRGRPPRLPRPRPRPFRMPRP
  shrunken log2 fold change: 0.00538

## RRIRTRPPRLPRPRPRPAFHPRP
  shrunken log2 fold change: 0.0779

## RRIRKRPPRLPRPRPRPRQDPRP
  shrunken log2 fold change: -0.0954

## RRIRHRPPRLPRPRPRPIRQPRP
  shrunken log2 fold change: 0.0104

## RRIRPRPPRLPRPRPRPNLWPRP
  shrunken log2 fold change: -0.0151

## RRIRPRPPRLPRPRPRPTIYPRP
  shrunken log2 fold change: -0.413

## RRIRERPPRLPRPRPRPLTWPRP
  shrunken log2 fold change: 3.04

## RRIRMRPPRLPRPRPRPACQPRP
  shrunken log2 fold change: 0.141

## RRIRLRPPRLPRPRPRPEVAPRP
  shrunken log2 fold change: 0.475

## RRIRPRPPRLPRPRPRPNYHPRP
  shrunken log2 fold change: -0.607

## RRIRTRPPRLPRPRPRPTAIPRP
  shrunken log2 fold change: 0.0593

## RRIRNRPPRLPRPRPRPNAEPRP
  shrunken log2 fold change: 0.388

## RRIRIRPPRLPRPRPRPHNMPRP
  shrunken log2 fold change: -0.898

## RRIRARPPRLPRPRPRPMYVPRP
  shrunken log2 fold change: -0.0341

## RRIRDRPPRLPRPRPRPPVMPRP
  shrunken log2 fold change: -0.435

## RRIRWRPPRLPRPRPRPIDPPRP
  shrunken log2 fold change: -0.193

## RRIRYRPPRLPRPRPRPIMSPRP
  shrunken log2 fold change: -0.114

## RRIRQRPPRLPRPRPRPSYCPRP
  shrunken log2 fold change: 0.103

## RRIRARPPRLPRPRPRPMTAPRP
  shrunken log2 fold change: 0.433

## RRIRWRPPRLPRPRPRPKIMPRP
  shrunken log2 fold change: -0.198
